According to patent US5547938A, “Therapeutic agent for digestive tract diseases using glicentin” (Nisshin Flour Milling Co., Ltd., priority 1993, dated 1996):
Ends that are not written are not given here.

B1: Glicentin: Enteroglucagon peptide comprising 69 amino acid residues (SEQ ID NO:1), prepared by genetic engineering procedure (protein)
chain: RSLQDTEEKSRSFSASQADPLSDPDQMNEDKRHSQGTFTSDYSKYLDSRRAQDFVQWLMNTKRNRNNIA

Assays:
intestinal mucosa = experiment: Example 2: intestinal mucosal weight in rats after subcutaneous glicentin or control peptides; type: in vivo; details: 1 nmol per rat s.c.; for Intestinal mucosal weight: third of four equal parts of small intestine from the duodenum
Procedure: A solution of glicentin dissolved in a small amount of distilled water for injection was diluted with a 2% solution of bovine albumin prepared with a physiological saline solution for injection to a concentration of 400 μg/ml (50 nmol/ml). The solution was frozen and stored until used. On use it was 1:10 diluted with the physiological saline solution and subcutaneously given to rats at a dose of 0.2 ml, i.e., 1 nmol of glicentin per rat.
They were prepared and administered in the same way as glicentin at a dose of 1 nmol.
The small intestine was divided equally into four parts and the third part from the duodenum was measured for the weight of the mucosa.

intestinal mucosae = experiment: Example 1: nutritional (trophic) effect of glicentin on the intestinal mucosae of rats fed an elemental nutrition; type: in vivo, rat; details: 10 μg s.c. every 12 hours for 7 days
Procedure: An experiment was performed in male SD rats weighing 140-160 g which had been fed on standard food under light-dark condition of a cycle of 12 hours. The food which was replaced by an elemental nutrition (Elental®, Morishita-Roussel Japan) was taken ad lib., and remained unchanged until the experiment was finished. After feeding on the component nutrition for 3 days, administration of glicentin prepared as described below was started.
Gelatin was dissolved in warm water to a weight ratio of 16%, and the solution autoclaved and cooled to room temperature. To 40 ml of the gelatin solution was added a solution of 1 mg of glicentin in 10 ml of distilled water with stirring at room temperature. The mixture was divided into test tubes, freeze dried and stored for use.
The gelatin solution was subcutaneously given at a dose of 10 μg per glicentin every 12 hours for 7 days to examine a nutritional effect of glicentin on the intestinal mucosae. A similar gelatin solution containing no glicentin was given for the same period of time as a control for comparison. Twelve hours after completion of the final administration, the rats were sacrificed and subjected to removal of the small intestine in the region from the Treitz's ligamentum to the cecum. The removed small intestine was cut at the central site to separate it into the jejunum and the ileum. The lumen of each of the intestinal tracts was gently washed with an aqueous physiological saline solution. The intestinal tracts were longitudinally incised, respectively, and tissues were removed of a portion of the jejunum in proximity to the duodenum, a portion of the ileum in proximity to the cecum and a portion around the boundary between the jejunum and the ileum and fixed in a 3.7% formalin solution as the proximal, distal and middle sites of the small intestine, respectively. Mucosae were collected by ablation with a spatula from the remainder of the intestinal tracts and weighed, respectively.
The tissues fixed in the formalin solution were embedded in paraffin to form a preparation which was stained with hematoxylin-eosin and measured for height of the villi using an optical microscope.

male BALB/c mice = experiment: Intraperitoneal administration of human glicentin to mice, appearance observed; type: in vivo, mouse; details: 10 mg/kg intraperitoneally, male BALB/c mice (6 weeks age)
[1] = tested on: digestive tracts (gastric antrum, duodenum, jejunum); experiment: Example 3: motility of the digestive tracts after meal in dogs (strain gauge transducers); type: in vivo, dog; details: 400 pmol/kg i.v. over 1 hour
Procedure: An experiment was performed as described below in order to examine the action of glicentin on a motility of the digestive tracts after meal.
Six hybrid dogs weighing 16-18 kg were sutured with strain gauge transducers (manufactured by Star Medical, F121S) at a site of the gastric antrum 4 cm from the pyloric ring, a site of the duodenum for the main incurrent pancreatic duct and a site of the jejunum 10 cm from the Treitz's ligamentum, respectively, to measure the contractile force intensity of the circular muscle. Recovery period for the suture was 2 weeks.
Three of the 6 dogs were intravenously given over 1 hour 15 ml of a physiological saline solution in which 400 pmol of glicentin had been dissolved per kg of bodyweight. The remaining three received an aqueous physiological solution containing no glicentin in the same way as above as a control for comparison. The dogs were fed on 15 g of a solid diet (SD®, manufactured by Oriental Yeast K. K.) and 15 g of Vitaone® (manufactured by Nihon Pet Food K. K. and Kyodo Shiryo K. K. ) per kg of bodyweight simultaneously with the intravenous administration.
Then, the motor activity of the digestive tracts and length of the post-feed period were measured. Intensity of the contraction in the post-feed period was integrated for the two-hour measurements and evaluated in comparison with the mean level of the signal peak in phase 3 motor activity of the intestinal tracts in hunger and taken as a motor index.

[2] = post-feed contraction integrated over two hours relative to phase 3 peak

Molecule	Intestinal mucosal weight (intestinal mucosa) [g]	effect on weight of intestinal mucosa (in words) (intestinal mucosa; versus control)	Ileal mucosal weight per 100 g bodyweight (intestinal mucosae) [g/100 g bodyweight]	Jejunal mucosal weight per 100 g bodyweight (intestinal mucosae) [g/100 g bodyweight]	Length of small intestine per 100 g bodyweight (intestinal mucosae) [cm/100 g bodyweight]	Whole small intestinal mucosal weight per 100 g bodyweight (intestinal mucosae) [g/100 g bodyweight]	change in appearance (male BALB/c mice)	Length of post-feed period ([1]; simultaneously with feeding) [h]	Motor index, duodenum [1, 2]	Motor index, jejunum [1, 2]	Motor index, stomach vestibulum [1, 2]
Glucagon-like peptide-1: peptide hormone which occurs in a region of preproglucagon containing no glicentin (HAEGTFTSDVSSYLEGQAAKEFIAWLVKGR; ends and bridges not checked; UniProt P01275 98-127, looked up) [reference compound]	0.498 ± 0.042	–	–	–	–	–	–	–	–	–	–
B1	0.614 ± 0.025	significantly increases	0.57 ± 0.04	0.75 ± 0.08	66.4 ± 1.7	1.32 ± 0.03	no change in appearance	13.6 ± 1.0	0.675 ± 0.4	1.087 ± 0.2	0.878 ± 0.1
